Data: PMC4059526 (2014)

Tests used:
SNF = molecular target: T1, SNF (Drosophila melanogaster, UniProt P43332)
T1 chain: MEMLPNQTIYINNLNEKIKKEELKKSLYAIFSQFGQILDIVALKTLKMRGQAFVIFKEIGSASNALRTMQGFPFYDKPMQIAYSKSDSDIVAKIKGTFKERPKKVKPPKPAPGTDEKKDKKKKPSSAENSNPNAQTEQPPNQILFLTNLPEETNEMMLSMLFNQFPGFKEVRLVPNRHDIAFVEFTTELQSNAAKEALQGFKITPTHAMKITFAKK

SNF (sans fille) = molecular target: T2, SNF (sans fille) (Drosophila, UniProt P43332 1-216); assay: 2-aminopurine fluorescence and CD
T2 sequence: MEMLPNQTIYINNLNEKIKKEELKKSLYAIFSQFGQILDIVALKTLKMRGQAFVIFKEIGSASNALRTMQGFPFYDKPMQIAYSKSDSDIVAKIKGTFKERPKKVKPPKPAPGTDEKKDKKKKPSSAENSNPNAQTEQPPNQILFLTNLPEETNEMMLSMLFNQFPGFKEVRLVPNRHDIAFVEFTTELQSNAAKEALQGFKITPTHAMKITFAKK

Binder	Kd (SNF) [nM]	binding result (SNF (sans fille))
U2A' (protein, SLIV RNA bound) MVKLTPELINQSMQYINPCRERELDLRGYKIPQIENLGATLDQFDTIDLSDNDLRKLDNLPHLPRLKCLLLNNNRILRISEGLEEAVPNLGSIILTGNNLQELSDLEPLVGFTKLETICLLINPVSTKPNYREYMAYKFPQLRLLDFRKIKQKDRQAAQEFFRTKQGKDVLKEISRKSKMSAAAAIAAEAGNGKGRGSEGGRLANPQDMQRIREAIKRASSLAEVERLSQILQSGQLPDKFQHEMEAVAQNGAGHNGSGAVAMEY	4	–
GGCCGUAUUGCAGUACCGCGGCC (structured_RNA, 2-aminopurine replaces A at position 15 (3'-loop adenine)) [2AP-SLIV]	–	binds
